Experimental data reported in patent US11473089B2, “Aptamer for ADAMTS5 and use for aptamer for ADAMTS5” (RIBOMIC INC., priority 2017, dated 2022).
Positions count from the first letter of the chain named.

T1: ADAMTS5 (Homo sapiens, UniProt Q9UNA0)
T1 construct: purchased R&D systems
T1 sequence (Q9UNA0 262-930): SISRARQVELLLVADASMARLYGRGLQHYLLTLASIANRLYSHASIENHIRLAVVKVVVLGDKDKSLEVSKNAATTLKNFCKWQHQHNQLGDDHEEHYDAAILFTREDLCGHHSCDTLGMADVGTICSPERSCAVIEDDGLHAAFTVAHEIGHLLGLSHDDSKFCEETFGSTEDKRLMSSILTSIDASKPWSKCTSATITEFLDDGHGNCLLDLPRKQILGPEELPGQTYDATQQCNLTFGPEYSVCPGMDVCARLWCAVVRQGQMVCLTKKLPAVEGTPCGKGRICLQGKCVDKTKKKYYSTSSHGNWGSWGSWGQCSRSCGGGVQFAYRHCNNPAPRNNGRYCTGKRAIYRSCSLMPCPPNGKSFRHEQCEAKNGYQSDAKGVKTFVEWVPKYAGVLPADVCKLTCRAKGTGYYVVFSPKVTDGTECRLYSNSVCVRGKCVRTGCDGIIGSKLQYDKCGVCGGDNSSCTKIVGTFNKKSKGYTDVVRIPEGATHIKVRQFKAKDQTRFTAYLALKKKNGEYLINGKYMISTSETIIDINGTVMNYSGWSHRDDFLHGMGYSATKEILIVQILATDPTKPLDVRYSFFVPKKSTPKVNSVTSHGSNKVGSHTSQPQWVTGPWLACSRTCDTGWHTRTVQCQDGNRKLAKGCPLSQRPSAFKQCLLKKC

B1: 19 (nucleic acid)
chain: GGGACAUGCGUAACUUGAUAGGGGCCUCCACAGCUGAUAAGCUUGGACUCAAACCAUCAAGUCCAGAUCGAGCA
modifications: aptamer; 2'-fluoro at CU, RNA at AG, backbone not given here
B2: 24 (nucleic acid)
chain: B1 chain with U35C, A37G, A40G
modifications: aptamer; 2'-fluoro at CU, RNA at AG, backbone not given here
B3: 16 (nucleic acid)
chain: B1 chain with A30G, A39C, U44C
modifications: aptamer; 2'-fluoro at CU, RNA at AG, backbone not given here
B4: 22 (nucleic acid)
chain: B1 chain with U16G, G17C, G36A, A37U, A39C, U49A, C58G, A59C
modifications: aptamer; 2'-fluoro at CU, RNA at AG, backbone not given here
B5: 18 (nucleic acid)
chain: B1 chain with U16G, G17C, A20C, A30G, A37U, U44C, C58G, A59C
modifications: aptamer; 2'-fluoro at CU, RNA at AG, backbone not given here
B6: 23 (nucleic acid)
chain: B1 chain with U16G, G17U, U38A, C58A, A59C
modifications: aptamer; 2'-fluoro at CU, RNA at AG, backbone not given here
B7: 17 (nucleic acid)
chain: B1 chain with U16G, G17U, U38A, C58A, A59C
modifications: aptamer; 2'-fluoro at CU, RNA at AG, backbone not given here
B8: 20 (nucleic acid)
chain: GGGACAUGCGUAACUGUAUAGGGGCCUCCGCAGCUAUUCAGCUCGGACAUAAACCAUACAGUCCAGAUCGAGCA
modifications: aptamer; 2'-fluoro at CU, RNA at AG, backbone not given here
B9: 21 (nucleic acid)
chain: GGGACAUGCGUAACUAUAUAGGGGCCUCCACAGCUGUAAAGCUUGGACUUAAACCAUAUAGAGUCCAGAUCGAGCA
modifications: 2'-fluoro at CU, RNA at AG, backbone not given here
B10: 25 (nucleic acid)
chain: B8 chain with U17C, G30A, C44U, U50C, A58G
modifications: aptamer; 2'-fluoro at CU, RNA at AG, backbone not given here

These molecules were tested against T1, ADAMTS5 (assay: ADAMTS5 enzyme inhibition, aggrecan G1-IGD-G2 cleavage, SDS-PAGE detection (evaluation method 1)). Conditions: Table 7; 10 nM aptamer.
Format: biochemical
Experimental: Whether an aptamer having the nucleotide sequence shown in SEQ ID NO: 1 inhibits the enzyme activity of ADAMTS5 was evaluated by the following method. As a substrate of ADAMTS5, the G1-IGD-G2 domain of aggrecan (manufactured by R&D systems) was used. ADAMTS5 specifically cleaves in between the 392nd glutamic acid and the 393rd alanine in the G1-IGD-G2 domain and produces two fragments. These fragments have faster electrophoretic mobility than uncleaved G1-IGD-G2. Thus, the enzyme activity of ADAMTS5 can be measured by quantifying the band intensity of G1-IGD-G2 by SDS-PAGE electrophoresis. The assay was performed in a solution A buffer with a reaction mixture volume of 10 μL. First, a mixture (10 μL) of a nucleic acid and ADAMTS5 was prepared and incubated at 25° C. for 15 min. To a substrate solution (5 μL) diluted with solution A was added a mixture (5 μL) of the nucleic acid and ADAMTS5 to start the enzyme reaction. The final concentration of ADAMTS5 in the reaction solution was 5 nM, and the final substrate concentration was 50 μg/mL. The reaction solution was incubated at 37° C. for 2 hr, 2 μL of solution D was added, and the mixture was heated at 95° C. for 2 min to stop the enzyme reaction of ADAMTS5. Solution D contains 0.25 M tris (pH 6.8), 10% SDS, 50% glycerol, 0.25% bromo phenolblue, and 20% 2-mercaptoethanol. The heat-treated reaction solution was electrophoresed by 7.5% SDS-PAGE and stained with SYPRO Orange (manufactured by Sigma-Aldrich). The staining was performed according to the manual of Sigma-Aldrich and detected using STORM840 manufactured by GE Healthcare. For analytical curves, uncleaved substrates 1000 ng, 400 ng, 160 ng, 64 ng, 25.6 ng, 10.24 ng, and 4.1 ng were electrophoresed, and staining and detection were performed in the same manner. The amount of uncleaved substrate in each reaction solution was quantified from the band intensity and the standard curve. The substrate cleavage efficiency of ADAMTS5 under these reaction conditions was 80-100%. The inhibition rate of the test substance was calculated using the following equation. inhibition rate (%)=(Sapt−SE)/(S0−SE)×100 wherein Sapt is the amount of an uncleaved substrate with the addition of a test substance, SE is the residual amount of an uncleaved substrate with the addition of ADAMTS5, and S0 is the residual amount of an uncleaved substrate without the addition of ADAMTS5.
The concentration of an inhibitor necessary for inhibiting 50% of the enzyme activity (IC50) was determined. IC50 is a mean of four measurements.
In the case of B1, the “inhibitory activity % 10 nM aptamer” value is reported as 2.9%.
In the case of B2, the “inhibitory activity % 10 nM aptamer” value is reported as 20.2%.
For B3, the “inhibitory activity % 10 nM aptamer” value was 46.3%.
B4 was tested, and the “inhibitory activity % 10 nM aptamer” value was 14.8%.
For B5, the “inhibitory activity % 10 nM aptamer” value was 2.9%.
With B6 the “inhibitory activity % 10 nM aptamer” value was 14.5%.
B7 was tested, and the “inhibitory activity % 10 nM aptamer” value was 12.3%.
For B8, the “inhibitory activity % 10 nM aptamer” value was 15.5%.
B9 was tested, and the “inhibitory activity % 10 nM aptamer” value was 56.9%.

Same assay, conditions: Table 7; 20 nM aptamer
B10 was tested, and the “inhibitory activity % 20 nM aptamer” value was 72.1%.

Same assay, conditions: Table 7; 30 nM aptamer
In the case of B1, the “inhibitory activity % 30 nM aptamer” value is reported as 93.5%.
B3 was tested, and the “inhibitory activity % 30 nM aptamer” value was 93.6%.
B5 was tested, and the “inhibitory activity % 30 nM aptamer” value was 90.4%.
With B7 the “inhibitory activity % 30 nM aptamer” value was 88.2%.
With B8 the “inhibitory activity % 30 nM aptamer” value was 111.1%.

Same assay, conditions: Table 8; 30 nM aptamer
B9 was tested, and the “inhibitory activity % 30 nM aptamer” value was 78.8%.

The molecules below were run against T1, ADAMTS5 (assay: binding activity to ADAMTS5 by surface plasmon resonance (Biacore T100)). Conditions: Table 7.
Experimental: The binding activity of aptamers having the nucleotide sequences shown in SEQ ID NOs: 1 and 2 to ADAMTS5 was evaluated by the surface plasmon resonance method. Biacore T100 manufactured by GE Healthcare was used for the measurement. The SA chip was used as the sensor chip, which had streptavidin immobilized thereon. About 800 RU of a 16-nucleotide Poly dT with biotin at the 5′-terminal was bound on the chip. […] ADAMTS5 for analyte was prepared at 0.1 μM, and injected at a flow rate of 30 μL/min for 60 sec. As the running buffer, solution C was used. The solution C is a mixed solution of 300 mM sodium chloride, 5.4 mM potassium chloride, 1.8 mM calcium chloride, 0.8 mM magnesium chloride, 20 mM tris (pH 7.6), and 0.05% Tween20.
SEQ ID NO: 2 has a sequence with one base deletion from the continuous 4 G bases in the consensus sequence, and it was shown from the measurement results of the binding activity that the continuous 4 G bases in the consensus sequence are important for the activity of aptamers. Sensorgram showing the binding of an aptamer having the nucleotide sequence shown in SEQ ID NO: 1 to ADAMTS5 is presented in FIG. 2. In Table 1, “++” indicates those with the proportion of ADAMTS5 binding amount (RU value) to the amount of aptamer immobilized on the SA chip (RU value) of not less than 40%, “+” indicates those with the proportion of not less than 10% and less than 40%, and “−” indicates those with the proportion of less than 10%.
The binding activity and enzyme inhibitory activity of aptamers having nucleotide sequences shown in SEQ ID NOs: 16-25 to ADAMTS5 were measured. The binding activity was evaluated by the surface plasmon resonance method. For the measurement, a method similar to that in Example 1 was used. The enzyme inhibitory activity was measured by a method similar to that in Example 1. […] The negative control nucleic acid refers to the nucleic acid pool used in the first round of the SELEX method. The “++” indicates those with the proportion of ADAMTS5 binding amount (RU value) to the amount of aptamer immobilized on the SA chip (RU value) of not less than 40%, and “+” indicates those with the proportion of less than 40%. […] “n.d.” means not determined.
The binding activity of the nucleic acids shown in SEQ ID NOs: 30-45 to ADAMTS5 was measured. The binding activity was evaluated by the surface plasmon resonance method. In the Table, “++” indicates those with the proportion of ADAMTS5 binding amount (RU value) to the amount of aptamer immobilized on the SA chip (RU value) of not less than 40%, “+” indicates those with the proportion of not less than 10% and less than 40%, and “−” indicates those with the proportion of less than 10%.
With B1 the binding activity was “+ (proportion of less than 40%)”.
For B2, the binding activity was “++ (proportion of ADAMTS5 binding amount (RU value) to the amount of aptamer immobilized on the SA chip (RU value) of not less than 40%)”.
In the case of B3, the binding activity is reported as “+ (proportion of less than 40%)”.
In the case of B4, the binding activity is reported as “++ (proportion of ADAMTS5 binding amount (RU value) to the amount of aptamer immobilized on the SA chip (RU value) of not less than 40%)”.
In the case of B5, the binding activity is reported as “+ (proportion of less than 40%)”.
In the case of B10, the binding activity is reported as “++ (proportion of ADAMTS5 binding amount (RU value) to the amount of aptamer immobilized on the SA chip (RU value) of not less than 40%)”.
With B6 the binding activity was “++ (proportion of ADAMTS5 binding amount (RU value) to the amount of aptamer immobilized on the SA chip (RU value) of not less than 40%)”.
B7 was tested, and the binding activity was “+ (proportion of less than 40%)”.
With B8 the binding activity was “+ (proportion of less than 40%)”.
With B9 the binding activity was “++ (proportion of ADAMTS5 binding amount (RU value) to the amount of aptamer immobilized on the SA chip (RU value) of not less than 40%)”.
